We go through one substance from publication PMC11294389.

In one assay the target is GFP-Atx3 77Q (human) (UniProt P54252). Nature of the assay: co-IP; GFP-Trap agarose precipitates GFP-Atx3 from extracts of co-transfected 293T WT cells (1000 µg total protein, 20 µL bead slurry, 4 °C, 1 h); co-precipitated parkin detected by western blot and quantified by densitometry, n = 3.
The next assay has as its target GFP-Atx3 15Q (human) (UniProt P54252). Described as above.

With “6xMyc-parkin V380L (from UniProt O60260-1 1-465) (natural protein)”, the figures for the reduction of co-precipitated parkin against parkin WT in the assay with GFP-Atx3 77Q (human) and with GFP-Atx3 15Q (human) were 62% and 87%, respectively.
